Assay [1] can be described thus: Activity assay of Gaussia luciferase at bacteria solution level (substrate CTZ). It counts as cell-based. Conditions: OrigamiB (DE3) competent cells; 100 μL induced bacteria solution; CTZ final 100 μM; FIG. 4. How it is done: The expression plasmids pET28a-Gluc wt and pCold-no sp Glue obtained in Example 1 were individually transformed into BL21 (DE3) competent cells or OrigamiB (DE3) chemically competent cells (WEIDI BIO, EC1020S) and applied to plate medium. Then single colonies were picked from the plate for culture overnight at 37° C. The cultured clones were diluted at the ratio of 1:100 the next day, and transferred into 3 mL of fresh LB medium with ampicillin at 100 μg/mL, shaked at 37° C., 200 rpm until OD600≈0.5-0.6, followed by cooling on ice for 1 hour. IPTG was added at a final concentration of 1 mM as inducer for induction overnight at 16° C.
The induced bacteria solution, taken for 100 μL, was moved into a black 96-well plate, then added with 100 μL of a substrate CTZ (purchased from BIOLAB) at a final concentration of 100 μM. The luminescence intensity was read with a self-luminescence module of a microplate reader. […] Accordingly, the subsequent experiments were conducted with the Gaussia luciferase without the signal peptide.

A short description of assay [2]: Luminescence activity assay of purified Gaussia luciferase mutants on coelenterazine. Type of assay: biochemical. The following applies: for Measured luminescence intensity (CTZ): purified luciferase 1 μg/mL, 10 μL, 90 μL substrate coelenterazine 100 μM; for Ratio of luminescence intensities of advantageous mutant to wild-type Gaussia luciferase without signal peptide (CTZ): substrate coelenterazine 100 μM, vs no sp Gluc average. Summed up:
(§1)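 Readout: luminescence intensity, as ratio to signal-peptide-free wild-type enzyme. Enzyme 1 μg/mL, substrate 100 μM stock, 10 μL + 90 μL; buffer 50 mM Tris-HCl pH 8.0, 100 mM NaCl, 0.1% Tween-20.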

Assay [3] can be described thus: Luminescence activity assay of purified Gaussia luciferase mutants on fluoro-coelenterazine. It counts as biochemical. Conditions: for Measured luminescence intensity (f-CTZ): purified luciferase 1 μg/mL, 10 μL, 90 μL substrate fluoro-coelenterazine 100 μM; for Ratio of luminescence intensities of advantageous mutant to wild-type Gaussia luciferase without signal peptide (f-CTZ): substrate fluoro-coelenterazine 100 μM, vs no sp Gluc average. Summed up: as §1

The nature of assay [4]: Luminescence activity assay of purified Gaussia luciferase mutants on coelenterazine derivative ZS2. It counts as biochemical. The following applies: for Measured luminescence intensity (ZS2): purified luciferase 1 μg/mL, 10 μL, 90 μL substrate ZS2 100 μM; for Ratio of luminescence intensities of advantageous mutant to wild-type Gaussia luciferase without signal peptide (ZS2): substrate ZS2 100 μM, vs no sp Gluc average. The essentials: as §1

Several values for one entry are separate records, joined by “and”; a condition that tells them apart may be missing. Identical values can stand only once.

B1: no sp Gluc: wild type Gaussia luciferase without signal peptide, having a sequence shown in SEQ ID NO: 3 (protein)
chain: KPTENNEDFNIVAVASNFATTDLDADRGKLPGKKLPLEVLKEMEANARKAGCTRGCLICLSHIKCTPKMKKFIPGRCHTYEGDKESAQGGIGEAIVDIPEIPGFKDLEPMEQFIAQVDLCVDCTTGCLKGLANVQCSDLLKKWLPQRCATFASKIQGQVDKIKGAGGD
As for B1, the “luminescence value at bacteria solution level” value in assay [1] was “highest luminescence value”. Also, in assay [2], the “Measured luminescence intensity (CTZ)” value was 253597 and 276603 and 266322; the “Ratio of luminescence intensities of advantageous mutant to wild-type Gaussia luciferase without signal peptide (CTZ)” value is 0.96 and 1.04 and 1. In addition, in assay [2] (listed as no sp Gluc average), the “Measured luminescence intensity (CTZ)” value came out at 265507.3 and the “Ratio of luminescence intensities of advantageous mutant to wild-type Gaussia luciferase without signal peptide (CTZ)” value is 1. In addition, in assay [3], the “Measured luminescence intensity (f-CTZ)” value is 5662 and 7198 and 6191; the “Ratio of luminescence intensities of advantageous mutant to wild-type Gaussia luciferase without signal peptide (f-CTZ)” value is 0.89 and 1.13 and 0.97. Moreover, in assay [3] (listed as no sp Gluc average), the “Measured luminescence intensity (f-CTZ)” value is listed as 6350.333 and the “Ratio of luminescence intensities of advantageous mutant to wild-type Gaussia luciferase without signal peptide (f-CTZ)” value is listed as 1. In addition, in assay [4], the “Measured luminescence intensity (ZS2)” value was 18344 and 20707 and 22415; the “Ratio of luminescence intensities of advantageous mutant to wild-type Gaussia luciferase without signal peptide (ZS2)” value was 0.9 and 1.01 and 1.09. In addition, in assay [4] (listed as no sp Gluc average), the “Measured luminescence intensity (ZS2)” value stood at 20488.67 and the “Ratio of luminescence intensities of advantageous mutant to wild-type Gaussia luciferase without signal peptide (ZS2)” value stood at 1.

The values above are taken from patent US20250066745A1, “MUTANTS AND USE THEREOF” (BGI SHENZHEN, priority 2021, published 2025).
